Data on 138 substances can be found in the supplement of paper PMC12042874.

± gives the uncertainty stated by the source.

The series is described as follows: amyloid nucleation score (Sup35N fusion, yeast selection) (log enrichment); library NNK1; higher = more nucleation; inactive = no reads after selection. The essentials: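 Random libraries were run with three technical output replicates. In each, psi-negative yeast expressing Sup35N fused to peptides of 20 random codons were induced 24 hours with 100 μM copper sulfate and grown 7 days at 30°C on medium lacking adenine and uracil, and input and output plasmid inserts were Illumina-sequenced. The nucleation score is the DiMSum log enrichment of output over input reads, centred on the mode score of non-aggregating sequences, and sequences under 100 input reads were excluded.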
As for SFRYFKLSCYFFFLVFAVFF, the amyloid nucleation score was -1.02 ± 2.4.

SFRYVGCWYMARWFS came in with an amyloid nucleation score of -0.497 ± 0.3.

For SFTGVDHSQLNDFSATNNAS, the amyloid nucleation score came out at 0.653 ± 0.55.

SFTNDSSRSWRHTRLGSCCE: the amyloid nucleation score was 1.48 ± 0.63.

SFVRGFYVNFRFSKGILDMF showed an amyloid nucleation score of -0.082 ± 0.32.

In turn, SGCCVASFYHRDSILSCEKA had an amyloid nucleation score of 0.446 ± 0.58.

SGCGPNGIRFWVRLEVGNTT: the amyloid nucleation score stood at 0.016 ± 0.33.

As to SGCRYSAIVGSPMRCNMYRS, the amyloid nucleation score is -0.756 ± 2.4.

For the substance SGMHHHDKARNRG, the amyloid nucleation score is 1.26 ± 0.59.

With SGMYSMYQDKT, the amyloid nucleation score was -0.716 ± 0.5.

With SGNTGPFRCARAADNSNFKG, the amyloid nucleation score was -0.922 ± 0.67.

SGPGDKVAISMNIY displayed an amyloid nucleation score of 5.16 ± 0.087.

With SGRPLNNVWGVTWEIMRLSL, the amyloid nucleation score is -0.839 ± 0.86.

In turn, SGRRTYMLRMLQWVGVIAYR had an amyloid nucleation score of -2.36 ± 2.4.

SGVLVGYHRDLDVDMNLNPM came in with an amyloid nucleation score of -0.419 ± 0.4.

As for SGVWNEFEGCWMVDDVIDPL, the amyloid nucleation score was determined as 0.268 ± 0.44.

Take SGWCGSTFSCERNPTVYSSC: the amyloid nucleation score worked out at 1.96 ± 0.26.

Consider SGYMWMFMSHRNEFRTEVRW, for which the amyloid nucleation score turned out to be 0.385 ± 0.37.

Substance SHGRMCQLEYWSLRKGRGAG returned an amyloid nucleation score of 0.229 ± 0.59.

SHIRSWVRSAHAWYIWHGKT had an amyloid nucleation score of 0.466 ± 0.44.

SHPVIL returned an amyloid nucleation score of 0.039 ± 0.29.

For the substance SHREMPSPIGMVSSSFMRVT, the amyloid nucleation score was found to be 0.539 ± 0.9.

In turn, SHSTFAVQMRA registered an amyloid nucleation score of 8.273 ± 0.047.

For SHVVCVCLRDLPRIFVFVEK, the amyloid nucleation score worked out at 6.63 ± 0.07.

Substance SIANNKRTKTVGLMLSCRSS yielded an amyloid nucleation score of 3.79 ± 0.14.

Substance SIDRIRVSVHPLAFKIYLDV returned an amyloid nucleation score of 0.497 ± 0.43.

The substance SIDTPYFALNRCALIHTSFT showed an amyloid nucleation score of 0.825 ± 0.52.

SIFRTKTTFLRNVQLEWLGG gave an amyloid nucleation score of -0.211 ± 0.86.

As to SIFWSRTVLLMN, the amyloid nucleation score turned out to be 5.97 ± 0.1.

In turn, SIGNKYKSIVWYFKCCLANL gave an amyloid nucleation score of 5.97 ± 0.066.

Regarding SIGPFKTYCTAAWP, the amyloid nucleation score was -0.502 ± 0.36.

Take SIHGGFYTLPE: the amyloid nucleation score was 1.15 ± 0.51.

Substance SIHVGVSRG came in with an amyloid nucleation score of 0.806 ± 0.35.

For the substance SILSWLFSWTMLEEVI, the amyloid nucleation score entry is “inactive”.

As for SIMSFH, the amyloid nucleation score entry was “inactive”.

Take SIQCKKFGGIWCTDTRSIGP: the amyloid nucleation score was found to be 1.33 ± 0.33.

Turning to SIQLMNVFDQVVSQASIKHG, the amyloid nucleation score result is “inactive”.

SIRCLIREKA returned an amyloid nucleation score of -0.238 ± 0.75.

In the case of SIRLVLRFLTA, the amyloid nucleation score was -0.166 ± 0.46.

Consider SIRMGSEVRSDNEMVMRWQM, for which the amyloid nucleation score came out at 3.67 ± 0.16.

Turning to SIRSVLFVSTVDDTPPYQGF, the amyloid nucleation score result is “inactive”.

In turn, SIRVSDYQRVFNNIGMSNCN showed an amyloid nucleation score of -0.454 ± 0.53.

On to SISNPRSLLYVSRSYNSDEF, for which the amyloid nucleation score was -0.956 ± 0.8.

SISNTLLGLEEWLPNYVNVF displayed an amyloid nucleation score of 0.871 ± 0.49.

SITVVSNEFNVVNVILCGCY displayed an amyloid nucleation score of 7.009 ± 0.046.

For the substance SIYCGDTQDVVPIVSHLSNL, the amyloid nucleation score was 0.187 ± 0.29.

SKEFPHMYFFGVRFVVVTKV: the amyloid nucleation score was -0.246 ± 0.45.

Regarding SKFIYRRLKELFVFGYSIVT, the amyloid nucleation score entry is “inactive”.

With SKKSSRDLNSTSGRR, the amyloid nucleation score was -0.808 ± 1.4.

The substance SKLMTRVTVWLGSYGRGSWH registered an amyloid nucleation score of 0.629 ± 0.83.

In turn, SKYRLNAMWSACRQRWANIG registered an amyloid nucleation score of -0.995 ± 1.7.

Take SLCGTS: the amyloid nucleation score was -0.222 ± 0.46.

In the case of SLDCWLMGGRTANLVRRLGR, the amyloid nucleation score was -0.39 ± 0.95.

For the substance SLDVICPGVYLEMLGRESIL, the amyloid nucleation score was -0.416 ± 0.84.

Take SLFKNR: the amyloid nucleation score came out at 0.171 ± 0.61.

With SLFLAGIMDIRGWYVVASTP, the amyloid nucleation score was -0.34 ± 0.54.

In the case of SLFMDRFNVDVI, the amyloid nucleation score was -0.107 ± 0.35.

As to SLHSDVRHRRVVYVVREIAY, the amyloid nucleation score is -0.096 ± 1.1.

SLIKLVYWSHARNNCELW: the amyloid nucleation score came out at 3.5 ± 0.074.

As for SLIRSMTISDNLIMWAGWTY, the amyloid nucleation score is -0.7 ± 0.38.

For the substance SLLNTELQIKAQYDQMSHRR, the amyloid nucleation score amounted to 0.36 ± 0.44.

For the substance SLLYSITNVCTLRGRMCCLA, the amyloid nucleation score was 0.116 ± 0.45.

As to SLMCSPNGDESRQWNPRARQ, the amyloid nucleation score result was “inactive”.

In the case of SLMGALEIQRCSAFSSFLFR, the amyloid nucleation score worked out at 1.32 ± 0.41.

In turn, SLMIDRTRLGGN returned an amyloid nucleation score of 0.769 ± 0.17.

Turning to SLMRPCKCNAYCMIELITLY, the amyloid nucleation score result was “inactive”.

SLMSLLLNFVNLTNNNLSPF returned an amyloid nucleation score of -2.99 ± 1.6.

The substance SLNREYVYKRGGVREWCRYL gave an amyloid nucleation score of 0.856 ± 0.59.

For SLPQKGIHWRQYL, the amyloid nucleation score is 0.368 ± 0.61.

SLQAIGNWYHD yielded an amyloid nucleation score of 0.038 ± 0.6.

Regarding SLRSPWDRCSFRHFLPFFTM, the amyloid nucleation score was -0.735 ± 0.69.

Take SLRVTLTGQTDLASEFQWWL: the amyloid nucleation score entry was “inactive”.

Turning to SLSCTTLCLEYYRYCVRTYG, the amyloid nucleation score is 0.196 ± 0.7.

SLSMSRIQMHNRYKPGTQFD registered an amyloid nucleation score of 1.07 ± 0.46.

The substance SLSTVNRKAV yielded an amyloid nucleation score of -0.637 ± 0.57.

As for SLTVLCKVFFSCNQAGLLHG, the amyloid nucleation score was found to be 0.17 ± 0.5.

In turn, SLVPVYI yielded an amyloid nucleation score of 0.167 ± 0.35.

As for SLVVEMVNYE, the amyloid nucleation score was -0.039 ± 0.29.

In the case of SMAIVDRWLMQGSSQPAGS, the amyloid nucleation score is 0.702 ± 0.53.

For the substance SMFNQRWWVSPVVYGLIVWP, the amyloid nucleation score stood at 1.33 ± 0.79.

Substance SMGLYRDLRLKCFC showed an amyloid nucleation score of 1.02 ± 0.47.

On to SMMKRVTAVVNVFYRFDIKA, for which the amyloid nucleation score result was “inactive”.

SMSPTDICYWCLYHSAYIRD registered an amyloid nucleation score of 1.55 ± 0.3.

On to SMVYAYAAIILGWWNWGRGC, for which the amyloid nucleation score is 0.003 ± 1.1.

With SMWVWMHICEAMG, the amyloid nucleation score is 4.6 ± 0.11.

In the case of SNFHRNVYRGYRV, the amyloid nucleation score entry was “inactive”.

Regarding SNFVALYDRYNCFSVCIYCG, the amyloid nucleation score amounted to 5.78 ± 0.063.

Substance SNIREPDFRCIGLATF gave an amyloid nucleation score of 0.523 ± 0.7.

Take SNISSHQEASWRAYRFSESV: the amyloid nucleation score was 0.147 ± 0.57.

Substance SNLHNCLRGNGCWVIAIDVV registered an amyloid nucleation score of -0.251 ± 0.81.

SNLVCII gave an amyloid nucleation score of 0.211 ± 0.59.

SNTRFSCRSPWVCTFFVREV showed an amyloid nucleation score of 0.085 ± 0.52.

The substance SNVICRGR returned an amyloid nucleation score of 1.41 ± 0.31.

Turning to SPAMYPHNSRFLMYITSFMQ, the amyloid nucleation score was determined as 1.08 ± 0.72.

For SPGVDGWNPWVDTVLRKVSK, the amyloid nucleation score was -0.776 ± 0.61.

In the case of SPHAIGRYLSFCRFCGTAAR, the amyloid nucleation score is -0.026 ± 0.35.

As to SPLFPRKLQVQYKTYPYG, the amyloid nucleation score entry is “inactive”.

In the case of SPQQVSLVGWSRWTEPRTS, the amyloid nucleation score was -0.211 ± 0.36.

In the case of SPRRLGAVMVSRRVGVGKGW, the amyloid nucleation score turned out to be 0.402 ± 1.4.

Take SPSSVYVINLNSNLRGNGFA: the amyloid nucleation score was 7.08 ± 0.078.

Take SPTIVIKHRLNLESKRGYKV: the amyloid nucleation score was -0.216 ± 0.44.

SPWFAHITPRVIMEERH showed an amyloid nucleation score of -1.18 ± 0.79.

With SQCLSKLLSIDISRCWAGQM, the amyloid nucleation score came out at 2.59 ± 0.46.

Turning to SQIADHIRSPRNL, the amyloid nucleation score was -1.37 ± 2.1.

In turn, SQIASVINAQSSMCRFV registered an amyloid nucleation score of -0.023 ± 0.38.

As to SQLVHERNSVGFEIVWMNHL, the amyloid nucleation score is -0.249 ± 1.7.

SQMAVYRPHLLVSSFMFTRS had an amyloid nucleation score of 0.274 ± 0.57.

With SQSTLCSHTP, the amyloid nucleation score stood at 1.13 ± 0.74.

On to SQVEVIVYNVVSFTDGVRLA, for which the amyloid nucleation score was 3.89 ± 0.097.

SQYQTLDVHIKGNVCSNLDM displayed an amyloid nucleation score of 0.012 ± 1.6.

Regarding SQYSADSVHGCHLSVSPTWF, the amyloid nucleation score is 1 ± 0.81.

For SRAWWVKEFRGVKEVIQVRF, the amyloid nucleation score is 0.488 ± 0.56.

SRCCGPCYTAV registered an amyloid nucleation score of -0.115 ± 0.3.

SRCYMDSIV: the amyloid nucleation score came out at 0.101 ± 0.36.

Consider SRFNPSQRMHSNSGKGGVSF, for which the amyloid nucleation score result is “inactive”.

For SRFWGER, the amyloid nucleation score was 0.801 ± 0.62.

On to SRGLNFVIVTFYCDLLQG, for which the amyloid nucleation score is -0.881 ± 1.6.

SRGLRNLSSMPNWAGLP had an amyloid nucleation score of 0.707 ± 0.61.

Substance SRGTGRARDAAA registered an amyloid nucleation score of -0.488 ± 1.1.

In the case of SRLRCMEH, the amyloid nucleation score came to 2.51 ± 0.15.

Take SRLSLT: the amyloid nucleation score amounted to 0.179 ± 0.82.

Substance SRLVRSSLHMGAKTRVIQL came in with an amyloid nucleation score of 0.881 ± 0.26.

On to SRMWR, for which the amyloid nucleation score was -0.068 ± 0.45.

On to SRNAVVVVVQTYMDMTSCNT, for which the amyloid nucleation score came out at 6.37 ± 0.068.

SRRSYSYFGIIICVNCSDTS came in with an amyloid nucleation score of 8.583 ± 0.057.

In the case of SRSSCQVMVSRDAADVLHRI, the amyloid nucleation score was determined as 0.423 ± 0.58.

Take SRTFVGGLGLVYEIFIVMAV: the amyloid nucleation score was -0.301 ± 0.59.

SRVFRLVFKPSYGSLTRRCR yielded an amyloid nucleation score of -0.904 ± 1.9.

Take SRWFCYRLVFTFVGPTRHLD: the amyloid nucleation score was 0.172 ± 0.77.

SRWPTHGSQIFVLTESVLTN yielded an amyloid nucleation score of 0.062 ± 0.55.

In the case of SRWTFSNRAFYRTGAWA, the amyloid nucleation score was 0.235 ± 0.68.

SRYELSIVDCLRHTTSFFVR registered an amyloid nucleation score of 0.034 ± 0.81.

The substance SRYGWGTRSESRQLTSLSCT showed an amyloid nucleation score of -0.304 ± 1.3.

In turn, SRYIGSSPARMMASWTFQGL registered an amyloid nucleation score of 4.01 ± 0.078.

Regarding SRYSLTCRVLTWLPDNLVRR, the amyloid nucleation score stood at 0.07 ± 0.42.

Substance SSCSPHLLFGLASVGV came in with an amyloid nucleation score of 0.39 ± 0.53.

With SSCVIRKCKHERQRWMS, the amyloid nucleation score entry is “inactive”.

Substance SSDEFVDGSLIWYHLFSPCR had an amyloid nucleation score of -0.744 ± 0.41.
